The target of the experiment is T1, β-klotho (UniProt Q99N32).
T1 sequence: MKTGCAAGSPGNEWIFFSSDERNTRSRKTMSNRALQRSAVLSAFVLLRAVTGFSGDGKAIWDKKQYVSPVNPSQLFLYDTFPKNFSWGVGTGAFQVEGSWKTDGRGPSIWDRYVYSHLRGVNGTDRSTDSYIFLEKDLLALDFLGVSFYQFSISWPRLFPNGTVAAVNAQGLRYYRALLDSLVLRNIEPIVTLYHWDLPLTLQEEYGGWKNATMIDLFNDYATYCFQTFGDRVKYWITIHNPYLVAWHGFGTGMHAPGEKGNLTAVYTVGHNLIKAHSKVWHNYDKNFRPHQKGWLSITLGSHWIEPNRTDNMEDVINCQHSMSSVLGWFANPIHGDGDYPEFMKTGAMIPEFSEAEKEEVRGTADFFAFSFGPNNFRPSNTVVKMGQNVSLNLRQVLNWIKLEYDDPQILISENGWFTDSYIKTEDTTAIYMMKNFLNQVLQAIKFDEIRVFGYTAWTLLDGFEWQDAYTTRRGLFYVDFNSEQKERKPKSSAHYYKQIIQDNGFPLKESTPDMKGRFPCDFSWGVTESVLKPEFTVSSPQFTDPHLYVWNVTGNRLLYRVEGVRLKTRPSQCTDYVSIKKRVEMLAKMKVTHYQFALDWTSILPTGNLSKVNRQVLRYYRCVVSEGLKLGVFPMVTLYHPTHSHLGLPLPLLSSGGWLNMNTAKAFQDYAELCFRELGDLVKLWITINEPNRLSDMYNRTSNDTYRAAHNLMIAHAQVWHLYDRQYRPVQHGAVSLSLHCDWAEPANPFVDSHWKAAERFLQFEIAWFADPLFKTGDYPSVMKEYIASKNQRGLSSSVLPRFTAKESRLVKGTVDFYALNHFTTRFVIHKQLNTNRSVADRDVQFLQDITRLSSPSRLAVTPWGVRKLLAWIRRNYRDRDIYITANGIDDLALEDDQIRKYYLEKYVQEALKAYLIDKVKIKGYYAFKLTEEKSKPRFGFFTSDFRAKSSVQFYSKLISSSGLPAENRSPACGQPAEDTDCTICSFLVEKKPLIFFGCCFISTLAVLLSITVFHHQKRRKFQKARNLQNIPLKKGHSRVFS

“purified human fibroblast growth factor 21 (hFGF21), tag-free after TEV cleavage of MBP-hFGF21 (from UniProt Q9NSA1 29-209) (ligand)” came in with an EC50 of proliferation (MTT assay, 24 h) of β-klotho-transfected NIH-3T3 cells, hFGF21 at 0.01-500 ng/mL; untransfected cells showed no proliferative effect (data not shown) of 0.3 nM.

The values are drawn from publication PMC5700921.
